Experimental data: the supplement of paper PMC11875167

Assay: observed amide hydrogen exchange rate constant kobs (stretched exponential fit, FD-normalized) (s^-1); higher = faster H/D exchange (less protection)
Details: pH 3 (pH read); temperature: 20 °C; D2O: 88%
How it was run: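 Jurkat tryptic peptides (LysC/trypsin, carbamidomethylated cysteines) were labeled in 88% D2O, pHread 3, 20 °C, quenched with 0.23% formic acid at 13 times from 18 to 93,600 s, in processing triplicates. MS1 uptake (Q-Exactive HF, HDExaminer, no back-exchange correction) was normalized to full-deuteration controls (24 h, 37 °C). Curves were fitted to a stretched single exponential with β = 0.8. The observed exchange rate constant kobs is the fitted rate.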

## EDQTEYLEER
  observed amide hydrogen exchange rate constant kobs: 0.00222

## DEILPTTPISEQK
  observed amide hydrogen exchange rate constant kobs: 0.000626

## EIAEAYLGK
  observed amide hydrogen exchange rate constant kobs: 0.00148

## AGFAGDDAPR
  observed amide hydrogen exchange rate constant kobs: 0.00357

## DTGIFLDLMHLK
  observed amide hydrogen exchange rate constant kobs: 0.00141

## VVLIGGKPDR
  observed amide hydrogen exchange rate constant kobs: 0.00162

## AILVDLEPGTMDSVR
  observed amide hydrogen exchange rate constant kobs: 0.0012

## ALTVPELTQQVFDAK
  observed amide hydrogen exchange rate constant kobs: 0.000761

## IEVIEIMTDR
  observed amide hydrogen exchange rate constant kobs: 0.00104

## ALPGQLKPFETLLSQNQGGK
  observed amide hydrogen exchange rate constant kobs: 0.0011

## HLEINPDHSIIETLR
  observed amide hydrogen exchange rate constant kobs: 0.00155

## TIIPLISQCTPK
  observed amide hydrogen exchange rate constant kobs: 0.000921

## IEDVTPIPSDSTR
  observed amide hydrogen exchange rate constant kobs: 0.00154

## IGAEVYHNLK
  observed amide hydrogen exchange rate constant kobs: 0.0019

## QLFHPEQLITGK
  observed amide hydrogen exchange rate constant kobs: 0.00131

## VVDLLAPYAK
  observed amide hydrogen exchange rate constant kobs: 0.000767

## AVELAANTK
  observed amide hydrogen exchange rate constant kobs: 0.00114

## EGVHGGLINKK
  observed amide hydrogen exchange rate constant kobs: 0.0019

## AGKPVICATQMLESMIK
  observed amide hydrogen exchange rate constant kobs: 0.00088

## HEHQVMLMR
  observed amide hydrogen exchange rate constant kobs: 0.00145

## DQVANSAFVER
  observed amide hydrogen exchange rate constant kobs: 0.00108

## VESQLIGK
  observed amide hydrogen exchange rate constant kobs: 0.00139

## AVFVDLEPTVIDEVR
  observed amide hydrogen exchange rate constant kobs: 0.000889

## GTLDPVEK
  observed amide hydrogen exchange rate constant kobs: 0.00116

## IAIYELLFK
  observed amide hydrogen exchange rate constant kobs: 0.000527

## SIYGEK
  observed amide hydrogen exchange rate constant kobs: 0.00146

## AVTEQGAELSNEER
  observed amide hydrogen exchange rate constant kobs: 0.00216

## LTLHGLQQYYVK
  observed amide hydrogen exchange rate constant kobs: 0.000933

## EVTPEGLQMVK
  observed amide hydrogen exchange rate constant kobs: 0.000799

## GDEEGVPAVVIDMSGLR
  observed amide hydrogen exchange rate constant kobs: 0.00109

## YIDQEELNK
  observed amide hydrogen exchange rate constant kobs: 0.00207

## TDTGEPMGR
  observed amide hydrogen exchange rate constant kobs: 0.00239

## GVVDSEDLPLNISR
  observed amide hydrogen exchange rate constant kobs: 0.0013

## QEYDESGPSIVHRK
  observed amide hydrogen exchange rate constant kobs: 0.00258

## FSHEEIAMATVTALRR
  observed amide hydrogen exchange rate constant kobs: 0.000978

## TLFPLIEAK
  observed amide hydrogen exchange rate constant kobs: 0.000566

## SPYQEFTDHLVK
  observed amide hydrogen exchange rate constant kobs: 0.00116

## CAADLGLNK
  observed amide hydrogen exchange rate constant kobs: 0.00234

## TLTIVDTGIGMTK
  observed amide hydrogen exchange rate constant kobs: 0.000986

## YPSPFFVFGEK
  observed amide hydrogen exchange rate constant kobs: 0.000978

## PFLWLAR
  observed amide hydrogen exchange rate constant kobs: 0.000665

## NPPGFAFVEFEDPRDAADAVR
  observed amide hydrogen exchange rate constant kobs: 0.00134

## EESGKPGAHVTVK
  observed amide hydrogen exchange rate constant kobs: 0.00233

## ILDSVGIEADDDRLNK
  observed amide hydrogen exchange rate constant kobs: 0.0024

## LYQSAGGMPGGMPGGFPGGGAPPSGGASSGPTIEEVD
  observed amide hydrogen exchange rate constant kobs: 0.00113

## ALAAFLK
  observed amide hydrogen exchange rate constant kobs: 0.000792

## LISWYDNEFGYSNR
  observed amide hydrogen exchange rate constant kobs: 0.00164

## LLLPGELAK
  observed amide hydrogen exchange rate constant kobs: 0.000859

## VTLDWAK
  observed amide hydrogen exchange rate constant kobs: 0.00095

## ELISNASDALDK
  observed amide hydrogen exchange rate constant kobs: 0.00184

## KSDVEAIFSK
  observed amide hydrogen exchange rate constant kobs: 0.000898

## GADFLVTEVENGGSLGSK
  observed amide hydrogen exchange rate constant kobs: 0.00147

## IITLTGPTNAIFK
  observed amide hydrogen exchange rate constant kobs: 0.000716

## TLVDIAK
  observed amide hydrogen exchange rate constant kobs: 0.000674

## IKGEHPGLSIGDVAK
  observed amide hydrogen exchange rate constant kobs: 0.00174

## SFFTDDDK
  observed amide hydrogen exchange rate constant kobs: 0.0032

## IYVGNLPPDIR
  observed amide hydrogen exchange rate constant kobs: 0.00116

## NLPLPPPPPPR
  observed amide hydrogen exchange rate constant kobs: 0.00144

## LAPITSDPTEATAVGAVEASFK
  observed amide hydrogen exchange rate constant kobs: 0.000899

## LVKQELK
  observed amide hydrogen exchange rate constant kobs: 0.000709

## LWDLTTGTTTR
  observed amide hydrogen exchange rate constant kobs: 0.00172

## IDTIEIITDR
  observed amide hydrogen exchange rate constant kobs: 0.000965

## ATISNDGATILK
  observed amide hydrogen exchange rate constant kobs: 0.00117

## MGANSLER
  observed amide hydrogen exchange rate constant kobs: 0.00212

## ELQEMDKDDESLIK
  observed amide hydrogen exchange rate constant kobs: 0.00203

## HFVALSTNTTK
  observed amide hydrogen exchange rate constant kobs: 0.00117

## VDQIIMAK
  observed amide hydrogen exchange rate constant kobs: 0.00126

## PLRLPLQDVYK
  observed amide hydrogen exchange rate constant kobs: 0.000685

## VNFAMNVGK
  observed amide hydrogen exchange rate constant kobs: 0.000903

## RLNINAAK
  observed amide hydrogen exchange rate constant kobs: 0.000596

## VAGQDGSVVQFK
  observed amide hydrogen exchange rate constant kobs: 0.00116

## EQGVLSFWR
  observed amide hydrogen exchange rate constant kobs: 0.00106

## VIPELNGK
  observed amide hydrogen exchange rate constant kobs: 0.00159

## SINPDEAVAYGAAVQAAILSGDK
  observed amide hydrogen exchange rate constant kobs: 0.000731

## GPSSVEDIK
  observed amide hydrogen exchange rate constant kobs: 0.00156

## EVFEDAAEIR
  observed amide hydrogen exchange rate constant kobs: 0.002

## YLAEFATGNDRK
  observed amide hydrogen exchange rate constant kobs: 0.0022

## QEMQEVQSSR
  observed amide hydrogen exchange rate constant kobs: 0.00166

## APEPHVEEDDDDELDSK
  observed amide hydrogen exchange rate constant kobs: 0.0038

## FFEVILIDPFHK
  observed amide hydrogen exchange rate constant kobs: 0.000722

## TFFSFPAVVAPFK
  observed amide hydrogen exchange rate constant kobs: 0.000546

## SQLDIIIHSLK
  observed amide hydrogen exchange rate constant kobs: 0.000886

## LGGSAVISLEGKPL
  observed amide hydrogen exchange rate constant kobs: 0.000716

## NLLSVAYK
  observed amide hydrogen exchange rate constant kobs: 0.00119

## LLDVVHPAAK
  observed amide hydrogen exchange rate constant kobs: 0.00126

## DLTDYLMK
  observed amide hydrogen exchange rate constant kobs: 0.00113

## AAGVNVEPFWPGLFAK
  observed amide hydrogen exchange rate constant kobs: 0.000814

## VHIEIGPDGR
  observed amide hydrogen exchange rate constant kobs: 0.00136

## IWDLEGK
  observed amide hydrogen exchange rate constant kobs: 0.00103

## LAVNMVPFPR
  observed amide hydrogen exchange rate constant kobs: 0.000639

## QDFVQHFSQIVR
  observed amide hydrogen exchange rate constant kobs: 0.00117

## IYVDDGLISLQVK
  observed amide hydrogen exchange rate constant kobs: 0.000841

## GEMMDLQHGSLFLR
  observed amide hydrogen exchange rate constant kobs: 0.00161

## VAQLEQVYIR
  observed amide hydrogen exchange rate constant kobs: 0.001

## AVCMLSNTTAIAEAWAR
  observed amide hydrogen exchange rate constant kobs: 0.000746

## VAVLGASGGIGQPLSLLLK
  observed amide hydrogen exchange rate constant kobs: 0.000683

## SADTLWDIQK
  observed amide hydrogen exchange rate constant kobs: 0.000935

## RVIISAPSADAPMFVMGVNHEK
  observed amide hydrogen exchange rate constant kobs: 0.000994

## EIQTAVR
  observed amide hydrogen exchange rate constant kobs: 0.001

## PVGSLAGIGEVLGK
  observed amide hydrogen exchange rate constant kobs: 0.00115

## TLLGDGPVVTDPK
  observed amide hydrogen exchange rate constant kobs: 0.000938

## RFDDAVVQSDMK
  observed amide hydrogen exchange rate constant kobs: 0.00151

## VTLATLK
  observed amide hydrogen exchange rate constant kobs: 0.000759

## NDLAVVDVR
  observed amide hydrogen exchange rate constant kobs: 0.000939

## VLSSIEQK
  observed amide hydrogen exchange rate constant kobs: 0.00109

## VDFNVPMK
  observed amide hydrogen exchange rate constant kobs: 0.000994

## ESTLHLVLR
  observed amide hydrogen exchange rate constant kobs: 0.00129

## TYSYLTPDLWK
  observed amide hydrogen exchange rate constant kobs: 0.000805

## ESTGAQVQVAGDMLPNSTER
  observed amide hydrogen exchange rate constant kobs: 0.00119

## NPLPSK
  observed amide hydrogen exchange rate constant kobs: 0.000929

## VSFELFADK
  observed amide hydrogen exchange rate constant kobs: 0.00165

## ALPFWNEEIVPQIK
  observed amide hydrogen exchange rate constant kobs: 0.000814

## VAVATPAK
  observed amide hydrogen exchange rate constant kobs: 0.000839

## RAPFDLFENK
  observed amide hydrogen exchange rate constant kobs: 0.00167

## FLILPDMLK
  observed amide hydrogen exchange rate constant kobs: 0.000536

## GVVPLAGTNGETTTQGLDGLSER
  observed amide hydrogen exchange rate constant kobs: 0.00156

## DRPFFPGLVK
  observed amide hydrogen exchange rate constant kobs: 0.000625

## GLTSVINQK
  observed amide hydrogen exchange rate constant kobs: 0.000815

## FEDENFILK
  observed amide hydrogen exchange rate constant kobs: 0.00131

## VEVQYK
  observed amide hydrogen exchange rate constant kobs: 0.00112

## IVEMSTSK
  observed amide hydrogen exchange rate constant kobs: 0.00206

## HAVSEGTK
  observed amide hydrogen exchange rate constant kobs: 0.00263

## FLPLFDR
  observed amide hydrogen exchange rate constant kobs: 0.00116

## ANTFVAELK
  observed amide hydrogen exchange rate constant kobs: 0.00102

## FSELTAEK
  observed amide hydrogen exchange rate constant kobs: 0.00148

## YLIPNATQPESK
  observed amide hydrogen exchange rate constant kobs: 0.000945

## GVNLPGAAVDLPAVSEK
  observed amide hydrogen exchange rate constant kobs: 0.0011

## NLDIERPTYTNLNR
  observed amide hydrogen exchange rate constant kobs: 0.00136

## IDNSQVESGSLEDDWDFLPPKK
  observed amide hydrogen exchange rate constant kobs: 0.00156

## SDALETLGFLNHYQMK
  observed amide hydrogen exchange rate constant kobs: 0.00133

## FSGWYDADLSPAGHEEAK
  observed amide hydrogen exchange rate constant kobs: 0.00239

## ELLDLLYK
  observed amide hydrogen exchange rate constant kobs: 0.000866

## ESVPEFPLSPPK
  observed amide hydrogen exchange rate constant kobs: 0.00083

## SSFYVNGLTLGGQK
  observed amide hydrogen exchange rate constant kobs: 0.00091

## AVTEQGHELSNEER
  observed amide hydrogen exchange rate constant kobs: 0.00324

## VSHVSTGGGASLELLEGK
  observed amide hydrogen exchange rate constant kobs: 0.000818

## LGFAGLVQEISFGTTK
  observed amide hydrogen exchange rate constant kobs: 0.001

## GYDVIAQAQSGTGK
  observed amide hydrogen exchange rate constant kobs: 0.00126

## GRGARGGKAEDK
  observed amide hydrogen exchange rate constant kobs: 0.00275

## EGGLGPLNIPLLADVTR
  observed amide hydrogen exchange rate constant kobs: 0.000844

## KLEAAEER
  observed amide hydrogen exchange rate constant kobs: 0.00257

## LFVGGLK
  observed amide hydrogen exchange rate constant kobs: 0.000811

## ILQDGGLQVVEK
  observed amide hydrogen exchange rate constant kobs: 0.000978

## FAAYFQQGDMESNGK
  observed amide hydrogen exchange rate constant kobs: 0.00182

## GPDGLTAFEATDNQAIK
  observed amide hydrogen exchange rate constant kobs: 0.00114

## DRVTDALNATR
  observed amide hydrogen exchange rate constant kobs: 0.000789

## EVFSMAGVVVR
  observed amide hydrogen exchange rate constant kobs: 0.00144

## VETGVLKPGMVVTFAPVNVTTEVK
  observed amide hydrogen exchange rate constant kobs: 0.000574

## TSRPENAIIYNNNEDFQVGQAK
  observed amide hydrogen exchange rate constant kobs: 0.00112

## EDSVKPGAHLTVK
  observed amide hydrogen exchange rate constant kobs: 0.00181

## NNQFQALLQYADPVSAQHAK
  observed amide hydrogen exchange rate constant kobs: 0.000863

## MINTDLSR
  observed amide hydrogen exchange rate constant kobs: 0.000886

## ELISNSSDALDK
  observed amide hydrogen exchange rate constant kobs: 0.00235

## ILTFDQLALDSPK
  observed amide hydrogen exchange rate constant kobs: 0.000724

## VPSLVGSFIR
  observed amide hydrogen exchange rate constant kobs: 0.000779

## IEEELGSK
  observed amide hydrogen exchange rate constant kobs: 0.00244

## IGEHTPSALAIMENANVLAR
  observed amide hydrogen exchange rate constant kobs: 0.000813

## PMPNPNPNHPSSSGSFSDADLADGVSGGEGK
  observed amide hydrogen exchange rate constant kobs: 0.00261
